No end group written: not given here.
Columns and labels:
[1] = molecular target: T1, human Fes SH2-kinase unit (residues I448 to the C terminus), autophosphorylated on Y713 (human, UniProt P07332-1 448-822, phosphotyrosine at 713); test: crystal structure; sitting drops; Fes SH2-kinase with staurosporine (1 mM) and peptide Ac-IYESL (250-300 uM); form II from 20% PEG 3350, 0.1 M sodium malate; form III from 30% mPEG 2000, 0.15 M NaBr; conditions: both partners purified
T1 construct: Fes tyrosine kinase, human, NP_001996; Crystallised with staurosporine; also called pY713-Fes; phosphorylated Fes; source: E. coli BL21(DE3)-R3, coexpressed with YopH, purified; autophosphorylated in vitro, purified by gel filtration
T1 sequence (P07332 448-822): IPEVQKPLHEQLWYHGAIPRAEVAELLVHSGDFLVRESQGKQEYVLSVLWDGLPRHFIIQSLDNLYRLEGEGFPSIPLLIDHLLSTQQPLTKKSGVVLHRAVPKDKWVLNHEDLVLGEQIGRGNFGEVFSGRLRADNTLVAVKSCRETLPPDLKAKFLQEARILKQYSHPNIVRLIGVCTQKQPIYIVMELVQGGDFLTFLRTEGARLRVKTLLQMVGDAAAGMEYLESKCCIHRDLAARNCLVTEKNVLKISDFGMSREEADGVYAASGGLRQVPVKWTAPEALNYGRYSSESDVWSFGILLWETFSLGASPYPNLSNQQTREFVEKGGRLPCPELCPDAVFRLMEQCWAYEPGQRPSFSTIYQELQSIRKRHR

[2] = molecular target: T2, human Fes SH2-kinase unit (residues I448 to the C terminus), unphosphorylated (human, UniProt P07332-1 448-822); test: as above; conditions: both partners purified
T2 construct: Fes tyrosine kinase, human, NP_001996; linker N terminal to the SH2 domain, SH2 domain and C-terminal kinase domain; residues I448 to the C terminus; Crystallised with staurosporine; also called SH2-kinase polypeptide; unphosphorylated Fes; source: E. coli BL21(DE3)-R3, coexpressed with YopH tyrosine phosphatase, purified
T2 sequence (P07332 448-822): as above

B1: Fes kinase consensus substrate peptide Ac-IYESL (peptide)
peptide: Ac-IYESL
notes: consensus substrate peptide of the Fes kinase, derived from peptide library and array screens; also called consensus peptide; source: synthetic peptide
binding result [1]: binds
binding result [2]: binds

— article PMC2572732, “Structural Coupling of SH2-Kinase Domains Links Fes and Abl Substrate Recognition and Kinase Activation” (Cell, 2008)
